According to US11059855B2, “Antimicrobial peptides and methods of making and using same” (priority 2017, dated 2021):
No end group written: not given here.

Experiments:
[1] = Circular dichroism secondary structure (Dichroweb), peptide only; type: physicochemical; settings: 20 °C
Protocol: (§1) Dichroweb software analyzes the secondary structure of LDKA peptides from circular dichroism spectroscope. The table presents the percentage of each helix and strand structure at different temperature. The data are analyzed using CONTIN-LL method and Reference Set 4 (Optimised for 190-240 nm).
(§2) Peptide solutions (peptide concentration is 50 μM) were titrated with POPC and POPG LUVs (50, 100, 250, 500, 1000 μM) and the corresponding changes CD spectra collected. Analysis of these spectra using CD tools and Dichroweb provides an ensemble average of the changes in secondary structure in the presence of POPC and POPG LUVs (dichroweb.cryst.bbk.ac.uk), which gives a direct measure of the binding free energies for each peptide.

[2] = Circular dichroism secondary structure (Dichroweb), with POPC; type: physicochemical
Protocol: as §1, §2

[3] = Circular dichroism secondary structure (Dichroweb), with POPG; type: physicochemical
Protocol: as §1, §2

[4] = ANTS/DPX leakage assay, POPC; type: biochemical; settings: P:L = 1:1000, pH 7 phosphate buffer
Protocol: (§3) 5 mM ANTS and 12.5 mM DPX were entrapped in 0.1 μm diameter extruded vesicles with lipids. Gel filtration chromatography of Sephadex G-100 (GE Healthcare Life Sciences Inc.) was used to remove external free ANTS/DPX from LUVs with entrapped contents. […] Leakage was measured after 3 hr incubation. 10% Triton was used as the positive control to measure the maximum leakage of the vesicle. Fluorescence emission spectra were recorded using excitation wavelength (Ex: 350 nm) and emission wavelength (Em: 510 nm) for ANTS/DPX using Synergy H1 Hybrid Multi-Mode Reader.
(§4) This detects and quantifies the release of a small fluorescent dye (ANTS/DPX; MW=˜400 Da) encapsulated in LUVs after addition of library peptides. Neutral POPC LUVs serve as a simple model for mammalian membranes, while charged POPG LUVs mimic bacterial membranes enriched in anionic lipids.

[5] = ANTS/DPX leakage assay, POPG; type: biochemical; settings: P:L = 1:1000, pH 7 phosphate buffer
Protocol: as §3, §4

[6] = 3-kDa dextran macromolecule release assay, POPG; type: biochemical; settings: P:L = 1:1000, pH 7 phosphate buffer
[7] = Pore-size characterization by 3-kDa dextran release; type: biochemical; settings: ‡Large pore for PG only
Text: Eight LDKA peptides with different lipid selectivity and pore sizes were selected from the high-throughput screen and sequenced. […] The most common mutation is L to A, occurred 13 times and in 7 out of the 8 peptides, followed by A to L, which occurred 6 times in 5 peptides, L to D which occurred 3 times in 3 peptides, and L to P that occurred once. Lysine (K) is not favorable to be shown at the position 6, 8, 10, 12, and 13, which is the non-polar face of the helical structure. […] More specifically, the analogs only induce leakage from anionic POPG vesicles have 4-5 leucines, which is less than the analogs that can porate both POPC and POPG vesicles and have 6-7 leucines in their sequences.

[8] = Membrane selectivity from high-throughput dye leakage screen; type: biochemical; settings: PC = POPC, PG = POPG
Text: as §4

S. aureus = assay: Bacterial minimum inhibitory concentration (MIC), S. aureus; type: cell-based, Staphylococcus aureus; settings: 75 μM maximum tested; NDA = not determinable
Protocol: (§5) Escherichia colt strain ATCC 25922, Staphylococcus aureus strain ATCC 25923, and Pseudomonas aeruginosa strain ATCC PAO1 were used in this study. Overnight cultures were subcultured to log phase (OD600=0.3-0.6) after which cell counts were determined by measuring the OD600 (OD600 1.0=1.5×10^8 CFU/mL for S. aureus, 5×10^8 CFU/mL for E. colt, and 2.04×10^8 CFU/mL for P. aeruginosa). Bacteria in minimal media mere added to serially diluted peptides and incubated for 3 hr, followed by the addition of full growth media. After overnight incubation, the optical density of the wells was recorded on a plate reader to determine whether they were sterilized (OD<0.08) or were at stationary phase growth (OD600>0.5). Intermediate values, which were rare, were considered positive for growth. Average minimum sterilizing concentrations were calculated from the lowest peptide concentration that sterilized the bacteria in each serial dilution. The samples were done in sextuplet.

[9] = tested on: methicillin-resistant Staphylococcus aureus (MRSA); type: cell-based; settings: 75 μM maximum tested; NDA = not determinable
P. aeruginosa = assay: Bacterial minimum inhibitory concentration (MIC), P. aeruginosa; type: cell-based, Pseudomonas aeruginosa; settings: 75 μM maximum tested; NDA = not determinable
Protocol: as §5

[10] = Tryptophan fluorescent binding assay
Text: To further investigate why some peptides (i.e. 7D12, 7G6, 11D12, 24F1, and 28H6) show selectivity for membrane types we measured peptide binding and secondary structural changes to vesicles containing binary mixtures of POPC and POPG lipids. FIGS. 10a-10e show the changes in the CD and tryptophan fluorescence spectra for these peptides upon addition of LUVs for whom the ratio of POPG was elevated from 0 to 100%. […] Consistent with the POPC/POPG leakage assay, these lipid selective peptides show little or no binding to POPC, which bind strongly to POPG. […] All other peptides have tryptophan fluorescence peaks around 350 nm, indicative of monomeric peptides. Addition of LUVs to 28H6 results in higher intensity and smaller width of the peak indicative of membrane binding. Remarkably, the CD spectra of 28H6 change from a helical aggregate in solution or POPC LUVs, to beta-strand conformations in the presence of anionic POPG lipids. Increasing the temperature of 28H6 with POPG vesicles can destabilize the beta-strand structure and reverse it to helix as the conformation of 28H6 with POPC (Table 8).

[11] = pH 7.1; cited from earlier work

With “GLLDDAKLLAKLAGW-AMIDE (GLLDDAKLLAKLAGW-NH2) [Peptide 7D12]” as the substance, how does the “Peptide-only, Strand” value [1] read?
The value was 11%.

And the “Peptide-POPC, Helix” value ([2]; 20 °C)?
Its value is 30%.

And the “Peptide-POPC, Strand” value ([2]; 20 °C)?
Its value is 20%.

What about the “Peptide-POPC, Helix” value ([2]; 45 °C) of the same substance?
The value was 26%.

What about the “Peptide-POPC, Strand” value ([2]; 45 °C) of the same substance?
The value was 21%.

And the “Peptide-POPC, Helix” value ([2]; 70 °C)?
The value was 27%.

What about the “Peptide-POPC, Strand” value ([2]; 70 °C) of the same substance?
The value was 22%.

What about the “Peptide-POPC, Helix” value ([2]; 95 °C) of the same substance?
Its value is 22%.

What about the “Peptide-POPC, Strand” value ([2]; 95 °C) of the same substance?
Its value is 24%.

And the “Peptide-POPG, Helix” value ([3]; 20 °C)?
The value was 78%.

And the “Peptide-POPG, Strand” value ([3]; 20 °C)?
Its value is 2%.

What about the “Peptide-POPG, Helix” value ([3]; 45 °C) of the same substance?
The value was 66%.

And the “Peptide-POPG, Strand” value ([3]; 45 °C)?
The value was 3%.

What about the “Peptide-POPG, Helix” value ([3]; 70 °C) of the same substance?
Its value is 48%.

And the “Peptide-POPG, Strand” value ([3]; 70 °C)?
The value was 6%.

What about the “Peptide-POPG, Helix” value ([3]; 95 °C) of the same substance?
Its value is 31%.

What about the “Peptide-POPG, Strand” value ([3]; 95 °C) of the same substance?
Its value is 13%.

And the “ANTS/DPX release, POPC” value [4]?
Its value is 6%.

And the “ANTS/DPX release, POPG” value [5]?
Its value is 103%.

What about the “3-kDa Dextran release, POPG” value [6] of the same substance?
The value was 17%.

And the Pore size [7]?
The Pore size was “Small”.

And the “Membrane selectivity (POPC vs POPG vesicles)” value [8]?
Its value is “PG > PC”.

What about the “Minimum Inhibitory Concentration, S. aureus” value (S. aureus) of the same substance?
Its value is “no activity and NDA”.

What about the “Minimum Inhibitory Concentration, MRSA” value [9] of the same substance?
Its value is “NDA”.

What about the “Minimum Inhibitory Concentration, P. aeruginosa” value (P. aeruginosa) of the same substance?
Its value is “no activity and NDA”.

What about the “Binding onto POPC” value [10] of the same substance?
Its value is “does not bind”.

And the “Solubility, DPBS pH 7.1” value [11]?
Its value is <0.1 mg/mL.
